How the values were obtained:
[1] = system: T1, model peptide analog WALAPRXFA (X = tertiary leucine)
T1 sequence: WALAPRXFA

[2] = system: T2, model thrombin substrate peptide WALAPRSFA
T2 sequence: WALAPRSFA

thrombin
cleavage of the peptide by the enzyme, C18 reverse phase HPLC and mass spectra after 4 hours at 23° C. with 10 nM thrombin [1]: the TLE substituted peptide analog was not cleaved by thrombin under these conditions | cleavage of the peptide by the enzyme, C18 reverse phase HPLC and mass spectra after 4 hours at 23° C. with 10 nM thrombin [2]: unmodified peptide was efficiently cleaved by thrombin to yield the cleavage product WALAPR
